# Data as given in patent US20200283741.
# T1: HbC1c-type αF8P
# T1 chain: VHLTPKEK
# T2: HbA1c-type αF8P (α-fructosyl-valyl-histidyl-leucyl-threonyl-prolyl-glutamyl-glutamyl-lysine)
# T2 chain: VHLTPEEK
# T3: HbS1c-type αF8P
# T3 chain: VHLTPVEK
# B1: glycated hexapeptide oxidase derived from Emericella nidulans (En42FX) (protein)
# chain: MAPRANTKIIVVGGGGTMGSSTALHLLRAGYTPSNITVLDTYPIPSAQSAGYDLNKIFGISGANKHDLQLSLEAFDMWKNDPLFKPFFHNVGQMDVSSTEEGIKRLRRRYQSLLRAGIGLEKTNFLLESEDEILAKAPHFTREQIKGWKGLFCGDGGWLAAAKAINAIGQFLKEQGVKFGFGEAGTFKKPLFADADEKTCIGVETVDGTKYYADKVVLAAGAWSSTLVDLEEQCVSKAWVFAHIQLTPAEAAAYKNTPVIYDGDYGFFIEPDENGIIKVCDEFPGFTHFKMHQPYGSPVPKLISVPRSHAKHPTDTYPHASEVTIKKAINRFLPRFNDKELFNRAMCWCTDTADSNLLVCEHPRWKGFYLATGDSGHSFKLLPNIGKHVVELLEGRLESVFKDAWRWRPGSGDALKSRRAAPAKDLADMPGWRNEAKM
# B2: En42FX R105A (protein)
# chain: MAPRANTKIIVVGGGGTMGSSTALHLLRAGYTPSNITVLDTYPIPSAQSAGYDLNKIFGISGANKHDLQLSLEAFDMWKNDPLFKPFFHNVGQMDVSSTEEGIKALRRRYQSLLRAGIGLEKTNFLLESEDEILAKAPHFTREQIKGWKGLFCGDGGWLAAAKAINAIGQFLKEQGVKFGFGEAGTFKKPLFADADEKTCIGVETVDGTKYYADKVVLAAGAWSSTLVDLEEQCVSKAWVFAHIQLTPAEAAAYKNTPVIYDGDYGFFIEPDENGIIKVCDEFPGFTHFKMHQPYGSPVPKLISVPRSHAKHPTDTYPHASEVTIKKAINRFLPRFNDKELFNRAMCWCTDTADSNLLVCEHPRWKGFYLATGDSGHSFKLLPNIGKHVVELLEGRLESVFKDAWRWRPGSGDALKSRRAAPAKDLADMPGWRNEAKM
# B3: En42FX R105N (protein)
# chain: MAPRANTKIIVVGGGGTMGSSTALHLLRAGYTPSNITVLDTYPIPSAQSAGYDLNKIFGISGANKHDLQLSLEAFDMWKNDPLFKPFFHNVGQMDVSSTEEGIKNLRRRYQSLLRAGIGLEKTNFLLESEDEILAKAPHFTREQIKGWKGLFCGDGGWLAAAKAINAIGQFLKEQGVKFGFGEAGTFKKPLFADADEKTCIGVETVDGTKYYADKVVLAAGAWSSTLVDLEEQCVSKAWVFAHIQLTPAEAAAYKNTPVIYDGDYGFFIEPDENGIIKVCDEFPGFTHFKMHQPYGSPVPKLISVPRSHAKHPTDTYPHASEVTIKKAINRFLPRFNDKELFNRAMCWCTDTADSNLLVCEHPRWKGFYLATGDSGHSFKLLPNIGKHVVELLEGRLESVFKDAWRWRPGSGDALKSRRAAPAKDLADMPGWRNEAKM
# B4: En42FX R105Q (protein)
# chain: MAPRANTKIIVVGGGGTMGSSTALHLLRAGYTPSNITVLDTYPIPSAQSAGYDLNKIFGISGANKHDLQLSLEAFDMWKNDPLFKPFFHNVGQMDVSSTEEGIKQLRRRYQSLLRAGIGLEKTNFLLESEDEILAKAPHFTREQIKGWKGLFCGDGGWLAAAKAINAIGQFLKEQGVKFGFGEAGTFKKPLFADADEKTCIGVETVDGTKYYADKVVLAAGAWSSTLVDLEEQCVSKAWVFAHIQLTPAEAAAYKNTPVIYDGDYGFFIEPDENGIIKVCDEFPGFTHFKMHQPYGSPVPKLISVPRSHAKHPTDTYPHASEVTIKKAINRFLPRFNDKELFNRAMCWCTDTADSNLLVCEHPRWKGFYLATGDSGHSFKLLPNIGKHVVELLEGRLESVFKDAWRWRPGSGDALKSRRAAPAKDLADMPGWRNEAKM
# B5: En42FX R105E (protein)
# chain: MAPRANTKIIVVGGGGTMGSSTALHLLRAGYTPSNITVLDTYPIPSAQSAGYDLNKIFGISGANKHDLQLSLEAFDMWKNDPLFKPFFHNVGQMDVSSTEEGIKELRRRYQSLLRAGIGLEKTNFLLESEDEILAKAPHFTREQIKGWKGLFCGDGGWLAAAKAINAIGQFLKEQGVKFGFGEAGTFKKPLFADADEKTCIGVETVDGTKYYADKVVLAAGAWSSTLVDLEEQCVSKAWVFAHIQLTPAEAAAYKNTPVIYDGDYGFFIEPDENGIIKVCDEFPGFTHFKMHQPYGSPVPKLISVPRSHAKHPTDTYPHASEVTIKKAINRFLPRFNDKELFNRAMCWCTDTADSNLLVCEHPRWKGFYLATGDSGHSFKLLPNIGKHVVELLEGRLESVFKDAWRWRPGSGDALKSRRAAPAKDLADMPGWRNEAKM
# B6: En42FX R108A (protein)
# chain: MAPRANTKIIVVGGGGTMGSSTALHLLRAGYTPSNITVLDTYPIPSAQSAGYDLNKIFGISGANKHDLQLSLEAFDMWKNDPLFKPFFHNVGQMDVSSTEEGIKRLRARYQSLLRAGIGLEKTNFLLESEDEILAKAPHFTREQIKGWKGLFCGDGGWLAAAKAINAIGQFLKEQGVKFGFGEAGTFKKPLFADADEKTCIGVETVDGTKYYADKVVLAAGAWSSTLVDLEEQCVSKAWVFAHIQLTPAEAAAYKNTPVIYDGDYGFFIEPDENGIIKVCDEFPGFTHFKMHQPYGSPVPKLISVPRSHAKHPTDTYPHASEVTIKKAINRFLPRFNDKELFNRAMCWCTDTADSNLLVCEHPRWKGFYLATGDSGHSFKLLPNIGKHVVELLEGRLESVFKDAWRWRPGSGDALKSRRAAPAKDLADMPGWRNEAKM
# B7: En42FX R108S (protein)
# chain: MAPRANTKIIVVGGGGTMGSSTALHLLRAGYTPSNITVLDTYPIPSAQSAGYDLNKIFGISGANKHDLQLSLEAFDMWKNDPLFKPFFHNVGQMDVSSTEEGIKRLRSRYQSLLRAGIGLEKTNFLLESEDEILAKAPHFTREQIKGWKGLFCGDGGWLAAAKAINAIGQFLKEQGVKFGFGEAGTFKKPLFADADEKTCIGVETVDGTKYYADKVVLAAGAWSSTLVDLEEQCVSKAWVFAHIQLTPAEAAAYKNTPVIYDGDYGFFIEPDENGIIKVCDEFPGFTHFKMHQPYGSPVPKLISVPRSHAKHPTDTYPHASEVTIKKAINRFLPRFNDKELFNRAMCWCTDTADSNLLVCEHPRWKGFYLATGDSGHSFKLLPNIGKHVVELLEGRLESVFKDAWRWRPGSGDALKSRRAAPAKDLADMPGWRNEAKM
# Key:
# HbC1c-type αF8P = target: T1, HbC1c-type αF8P
# [1] = target: T2, HbA1c-type αF8P …
# HbS1c-type αF8P = target: T3, HbS1c-type αF8P
Protein,relative activity on substrate (activity on HbA1c-type αF8P = 100%) (HbC1c-type αF8P) [%],"relative activity on substrate (reference, designated as 100%) [1] [%]",relative activity on substrate (activity on HbA1c-type αF8P = 100%) (HbS1c-type αF8P) [%]
B1,8,100,41
B2,33,100,70
B3,11,100,95
B4,25,100,70
B5,31,100,69
B6,57,100,70
B7,10,100,61
